The values below come from publication PMC6515139, “Oligomeric Architecture of Mouse Activating Nkrp1 Receptors on Living Cells” (International Journal of Molecular Sciences, 2019).

A word on the stoichiometry N: it is the number of molecules, sites or subunits per partner or assembly.

Residue numbers refer to the chain shown, from its start. Names may count otherwise.

The target in series [1] is EGFP-Nkrp1a_C74,88S (mouse (C57BL/6)) (UniProt P27811). Kind of series: FRET or BRET; homo-FRET (steady-state fluorescence anisotropy of EGFP, time-domain, TCSPC) at the plasma membrane of living transfected Jurkat cells on PLL-coated slides, 37 °C; semi-quantitative, calibrated by monomeric LAT and dimeric CD8α. Background: BRET reads energy transfer from a luciferase to a nearby fluorophore.

Series [2] addresses EGFP-Nkrp1c2 (mouse (C57BL/6)). The description is as above.
Series [3] deals with EGFP-Nkrp1a_C88S (mouse (C57BL/6)) (UniProt P27811). The series is described as above.
The target of series [4] is EGFP-Nkrp1a_C74S (mouse (C57BL/6)) (UniProt P27811). The series is described as above.
Series [5] concerns the molecule itself. The description is as above.
Series [6] deals with the molecule itself. Kind of series: SEC + other: SDS-PAGE under reducing and non-reducing conditions; refolded ectodomains on calibrated Superdex 75 (Nkrp1a^ECTO: 150 mM NaCl, 15 mM Tris-HCl pH 7.5; the others: 10 mM HEPES pH 7.4, 100 mM NaCl); main peaks analysed on 15% SDS-PAGE.

With “EGFP-Nkrp1a_C74,88S (from UniProt P27811 1-227) (receptor)”, in series [1], the steady-state anisotropy, mean was 0.285 and the steady-state anisotropy, median worked out at 0.283.

In series [2], EGFP-Nkrp1c2 (receptor) had a steady-state anisotropy, mean of 0.248 and a steady-state anisotropy, median of 0.249.

For the molecule “EGFP-Nkrp1a_C88S (from UniProt P27811 1-227) (receptor)”, in series [3], the steady-state anisotropy, mean was 0.267 and the steady-state anisotropy, median worked out at 0.266.

In series [4], “EGFP-Nkrp1a_C74S (from UniProt P27811 1-227) (receptor)” displayed a steady-state anisotropy, mean of 0.273 and a steady-state anisotropy, median of 0.272.

B1: EGFP-Nkrp1a (receptor, mouse (C57BL/6), UniProt P27811 1-227, looked up)
chain: MDTARVYFGLKPPRTPGAWHESPPSLPPDACRCPRSHRLALKLSCAGLILLVVTLIGMSVLVRVLIQKPSIEKCYVLIQENLNKTTDCSAKLECPQDWLSHRDKCFQVSHVSNTWEEGLVDCDGKGATLMLIQDQEELRFLLDSIKEKYNSFWIGLRYTLPDMNWKWINGSTLNSDVLKITGDTENDSCAAISGDKVTFESCNSDNRWICQKELYHETLSNYVGYGH
notes: last residue H227; Vector pXJ41; also called Nkrp1a1; a1 isoform; source: Jurkat, transiently transfected, living cells; COS-7, transiently transfected, in lysate; not shown: EGFP (with spacer GSGGGS), N-terminal, kept
Consider B1, for which, in series [5], the “steady-state anisotropy, mean” value worked out at 0.269 and the “steady-state anisotropy, median” value was 0.271.

B2: EGFP-Nkrp1f (receptor, mouse (C57BL/6), UniProt Q8VD98 1-217, looked up)
chain: MDTSKVHGNVKPFRCPGYKQASSPSFSPDACRCPHWHHLALKSGCAGLILLLLSLIGLSVLVRFLVQKPPIEKCSVAAQENRTELTGRSAILECPRYWHPHWNKCLFVSQISRPWAEGRDACSMEDAILLLIENKEELRFVQNLIKGKEQLFFIGLKYVQKEKIWKWIDGSILNPNLLRITGKDKENSCAIISHTEVFSDSCSSDNHWICQKTLIHV
notes: last residue V217; Vector pXJ41; also called f isoform; source: Jurkat, transiently transfected, living cells; COS-7, transiently transfected, in lysate; not shown: EGFP (with spacer GSGGGS), N-terminal, kept
As to B2, in series [5], the “steady-state anisotropy, mean” value turned out to be 0.25 and the “steady-state anisotropy, median” value stood at 0.25.

B3: EGFP-Nkrp1f_C74S (receptor, mouse (C57BL/6), UniProt Q8VD98 1-217, looked up)
chain: B2 chain with C74S
notes: Two extra C-terminal residues (Thr-Gly) possible as for m8 (surmise from the primer); also called C74S mutant of Nkrp1f; source: Jurkat, transiently transfected, living cells; COS-7, transiently transfected, in lysate; not shown: EGFP (with spacer GSGGGS), N-terminal, kept
Take B3: in series [5], the “steady-state anisotropy, mean” value was 0.281 and the “steady-state anisotropy, median” value is 0.281.

B4: EGFP-Nkrp1c1 (receptor, mouse (C57BL/6), UniProt P27814 1-223, looked up)
chain: MDTASIYLGLKPPRTLGAWHESPPSLPPDACRCPRSHRLALKLSCAGLILLVLTLIGMSVLVRVLVQKPSREKCCVFIQENLNKTTDCSVNLECPQDWLLHRDKCFHVSQVSNTWEEGQADCGRKGATLLLIQDQEELRFLLDSIKEKYNSFWIGLRFTLPDMNWKWINGTTFNSDVLKITGVTENGSCASILGDKVTPESCASDNRWICQKELNHETPSNDS
notes: last residue S223; Vector pXJ41; also called c1 isoform; source: Jurkat, transiently transfected, living cells; COS-7, transiently transfected, in lysate; not shown: EGFP (with spacer GSGGGS), N-terminal, kept
With B4, in series [5], the “steady-state anisotropy, mean” value turned out to be 0.244 and the “steady-state anisotropy, median” value stood at 0.242.

B5: Nkrp1c1^ECTO (domain or fragment, mouse (C57BL/6), UniProt P27814 70-223, looked up)
chain: SREKCCVFIQENLNKTTDCSVNLECPQDWLLHRDKCFHVSQVSNTWEEGQADCGRKGATLLLIQDQEELRFLLDSIKEKYNSFWIGLRFTLPDMNWKWINGTTFNSDVLKITGVTENGSCASILGDKVTPESCASDNRWICQKELNHETPSNDS
notes: mouse (C57BL/6) Nkrp1c isoform c1 ectodomain with stalk, residues S70-S223; Cloned into pET-30a(+) between NdeI and HindIII; an initiator Met may precede S70 (surmise); The monomeric form bears cysteamine on C88; the dimeric form has a C88-C88 disulfide; also called Nkrpc1^ECTO; recombinant ectodomain of Nkrp1c1
B5: the “stoichiometry N” value in series [6] turned out to be 2.

B6: Nkrp1f^ECTO (domain or fragment, mouse (C57BL/6), UniProt Q8VD98 67-217, looked up)
chain: QKPPIEKCSVAAQENRTELTGRSAILECPRYWHPHWNKCLFVSQISRPWAEGRDACSMEDAILLLIENKEELRFVQNLIKGKEQLFFIGLKYVQKEKIWKWIDGSILNPNLLRITGKDKENSCAIISHTEVFSDSCSSDNHWICQKTLIHV
notes: mouse (C57BL/6) Nkrp1f ectodomain with stalk, residues Q67-V217; Cloned into pET-30a(+) between NdeI and HindIII; an initiator Met may precede Q67 (surmise); The monomeric form bears cysteamine on C74; the dimeric form has a C74-C74 disulfide; also called recombinant ectodomain of Nkrp1f
On to B6, for which the “stoichiometry N” value in series [6] was 2.
